From US9013690 come the findings set out here.

The experiment has as its target Beta Amyloid 1-40 (human) (UniProt P05067). The experiment in a line: fluorescence sandwich immunoassay on D2PA plate, 6E10 capture and anti-Aβ42 detection, Aβ40 as analyte.

In turn, “anti-Aβ42 (biotinylated detection antibody of the Covance Aβ-42 ELISA kit)” gave a Cross-Reactivity of 0.06%.
